Target: hRPA1;hRPA2;hRPA3 (Homo sapiens;Homo sapiens;Homo sapiens, UniProt P27694;P15927;P35244 1-616;1-270;1-121, ||)
Test: FRET kinetics

hRPA1;hRPA2;hRPA3, sequence (P27694 whole entry, chain 1 of 3): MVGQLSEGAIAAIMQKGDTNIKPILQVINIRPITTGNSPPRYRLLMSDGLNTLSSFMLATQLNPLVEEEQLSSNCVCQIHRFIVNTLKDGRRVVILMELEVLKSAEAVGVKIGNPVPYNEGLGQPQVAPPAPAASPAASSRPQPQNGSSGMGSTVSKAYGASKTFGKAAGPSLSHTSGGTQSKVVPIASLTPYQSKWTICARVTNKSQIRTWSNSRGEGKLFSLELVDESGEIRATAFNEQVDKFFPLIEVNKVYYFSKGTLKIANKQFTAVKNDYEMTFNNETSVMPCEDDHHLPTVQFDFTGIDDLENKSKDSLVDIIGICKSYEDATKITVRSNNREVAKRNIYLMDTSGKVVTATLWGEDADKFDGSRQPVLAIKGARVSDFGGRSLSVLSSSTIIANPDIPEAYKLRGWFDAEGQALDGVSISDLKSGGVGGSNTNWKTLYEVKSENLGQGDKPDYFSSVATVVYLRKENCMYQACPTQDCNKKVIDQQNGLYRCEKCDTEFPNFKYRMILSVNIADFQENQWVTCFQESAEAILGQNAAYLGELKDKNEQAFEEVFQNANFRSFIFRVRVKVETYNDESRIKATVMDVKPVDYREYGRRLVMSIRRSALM
hRPA1;hRPA2;hRPA3, sequence (P15927 whole entry, chain 2 of 3): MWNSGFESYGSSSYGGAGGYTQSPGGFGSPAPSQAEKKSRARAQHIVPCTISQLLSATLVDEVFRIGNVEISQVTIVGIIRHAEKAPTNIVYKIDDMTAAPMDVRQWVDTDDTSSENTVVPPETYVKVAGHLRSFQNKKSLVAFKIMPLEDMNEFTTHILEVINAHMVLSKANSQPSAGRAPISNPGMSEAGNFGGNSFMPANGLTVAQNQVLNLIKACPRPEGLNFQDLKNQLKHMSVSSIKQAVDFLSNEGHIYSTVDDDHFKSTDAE
hRPA1;hRPA2;hRPA3, sequence (P35244 whole entry, chain 3 of 3): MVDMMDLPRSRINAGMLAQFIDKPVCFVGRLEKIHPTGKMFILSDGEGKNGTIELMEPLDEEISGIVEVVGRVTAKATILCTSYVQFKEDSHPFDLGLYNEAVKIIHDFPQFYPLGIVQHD

B1: H69-Q2 (structured_DNA)
DNA: GGGTTAGGGTTAGGGTTAGGGTTAGGGTTAGGGTTAGGGTTAGGGTTAGGGTTAGGGTTAGGGTTAGGG
modifications: 6FAM-dT in 4th repeat (T23); TAMRA-dT in 8th repeat (T47)
  binding result: binds

— article PMC8501996
